Values of other authors as cited in article PMC4005919.

Biological target: BID BH3 (Homo sapiens) (UniProt P55957)
Sequence (P55957 80-99): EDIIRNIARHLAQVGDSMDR

Sequence of BAK (Q16611 2-211): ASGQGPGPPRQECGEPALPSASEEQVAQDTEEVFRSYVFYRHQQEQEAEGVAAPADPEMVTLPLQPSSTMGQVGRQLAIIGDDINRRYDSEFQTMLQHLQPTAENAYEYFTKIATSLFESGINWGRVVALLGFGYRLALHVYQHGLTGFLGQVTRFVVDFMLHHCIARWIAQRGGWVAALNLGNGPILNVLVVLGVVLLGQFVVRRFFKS

Kd: 10 µM
Substance: BAK (from UniProt Q16611)
